Assay results: publication PMC7347513 (Cancer Immunology, Immunotherapy : CII, 2020)

Key:
[1] = molecular target: T1, HLA A*0201 presenting HCMV pp65 peptide […] on cells (human HLA-A*02:01 and B2M; HCMV pp65 …, strain); assay: flow cytometry on cells; conditions: one partner purified
T1 construct: copies: + +

[2] = molecular target: T2, biotinylated HLA A*0201/HCMV pp65 peptide […] complex (human HLA-A*02:01 and B2M; HCMV pp65 …, strain, biotin (in vivo, BirA, AviTag)); assay: ELISA; conditions: both partners purified
T2 construct: copies: + +

[3] = molecular target: T3, biotinylated HLA A*0101/HCMV pp65 peptide […] complex (human HLA-A*01:01 and B2M; HCMV pp65 …, strain, biotin (in vivo, BirA, AviTag)); assay: ELISA; conditions: both partners purified
T3 construct: copies: + +

[4] = molecular target: T4, HLA A*0101 presenting HCMV pp65 peptide […] on cells (human HLA-A*01:01 and B2M; HCMV pp65 …, strain); assay: flow cytometry on cells; conditions: one partner purified
T4 construct: copies: + +

[5] = molecular target: T5, HLA B*0702 presenting HCMV pp65 peptide … on cells (Homo sapiens HLA-B*07:02/B2M; HCMV pp65 …, strain); assay: flow cytometry on cells; conditions: one partner purified
T5 construct: copies: + +

[6] = molecular target: T6, biotinylated HLA B*0702/HCMV pp65 peptide … complex (Homo sapiens HLA-B*07:02/B2M; HCMV pp65 …, strain, biotin (in vivo, BirA, AviTag)); assay: ELISA; conditions: both partners purified
T6 construct: copies: + +

[7] = molecular target: T7, HLA A*0201 presenting the HCMV pp65 peptide […], on cells (human HLA-A*02:01 and B2M; HCMV pp65 …, strain); assay: flow cytometry on cells; conditions: one partner purified
T7 construct: copies: + +

[8] = molecular target: T8, HLA A*0201 on MRC-5 cells loaded with control peptide 13 (…, Trypanosoma cruzi KMP-11) (human HLA-A*02:01 and B2M; Trypanosoma …, strain); assay: flow cytometry on cells; conditions: one partner purified
T8 construct: copies: + +

[9] = molecular target: T9, biotinylated HLA B*3501/HCMV pp65 peptide … complex (Homo sapiens HLA-B*35:01 and B2M; HCMV …, strain, biotin (in vivo, BirA, AviTag)); assay: ELISA; conditions: both partners purified
T9 construct: copies: + +

B1: biotinylated Fab A11 (Fab, V domains shown)
VH: EVQLVQSGAEVKRPGASVKVSCKASGYTFTSYGIGWVRQAPGQGLEWMGWISAYSGNTNYAQNFQGRITMTTDTSTSTAYMELRSLRSDDTAVYYCARDFGKWDLPMYGMDVWGQGTTVTVSS
VL: QSVLTQPPSVSVAPGGTARISCGGNNIGTKNVHWYQQKPGQAPVLVMYYNSDRPAGIPERFSGSNSGNTATLTITRVEPGDEADYYCQVWDDRRDHYVFGTGTEVTVL
notes: source: E. coli TG1, biotinylated in vivo, purified (IMAC, Talon beads)
B1: binds [1].

B2: Fab A11 (Fab, V domains shown)
VH: EVQLVQSGAEVKRPGASVKVSCKASGYTFTSYGIGWVRQAPGQGLEWMGWISAYSGNTNYAQNFQGRITMTTDTSTSTAYMELRSLRSDDTAVYYCARDFGKWDLPMYGMDVWGQGTTVTVSS
VL: QSVLTQPPSVSVAPGGTARISCGGNNIGTKNVHWYQQKPGQAPVLVMYYNSDRPAGIPERFSGSNSGNTATLTITRVEPGDEADYYCQVWDDRRDHYVFGTGTEVTVL
notes: source: E. coli TG1, purified (IMAC, Talon beads)
B2: binds [2].

B3: biotinylated Fab A9 (Fab, V domains shown)
VH: EVQLVQSGAEVRNPGASVKVSCKASGYTFTSHGINWLRQAPGQGLEWMGWISAYSGNTNYAQNLQDRVSMTTDTSTSTAYMELRSLRSDDTAVYYCARDFGKWDLPMYGMDVWGQGTTVTVSS
VL: QSVLTQPPSVSAAPGQRVTISCSGSSSDIGKSGKNYVAWYQQLPGMAPKLLIHDTIKRPSGIPDRFSASKSGTSATLDITGLQTGDEGDYYCGTWNNNLSAYVFGTGTTITVL
notes: as for B1
B3: binds [1].

B4: Fab A9 (Fab, V domains shown)
VH: EVQLVQSGAEVRNPGASVKVSCKASGYTFTSHGINWLRQAPGQGLEWMGWISAYSGNTNYAQNLQDRVSMTTDTSTSTAYMELRSLRSDDTAVYYCARDFGKWDLPMYGMDVWGQGTTVTVSS
VL: QSVLTQPPSVSAAPGQRVTISCSGSSSDIGKSGKNYVAWYQQLPGMAPKLLIHDTIKRPSGIPDRFSASKSGTSATLDITGLQTGDEGDYYCGTWNNNLSAYVFGTGTTITVL
notes: as for B2
B4: binds [2].

B5: Fab A6 (Fab, V domains shown)
VH: EVQLVQSGAEVKKPGASVKVSCKASGYTFTSYYMHWVRQSPGQGLEWMGIINPSGGSTSYAQKFQGRVTMTRDTSTSTVYMELSSLRSEDTAVYYCARNGYCSSTSCYDAFDIWGQGTMVTVSS
VL: QSALTQPASVSGSPGQSITISCTGTSSDVGGYNYVSWYQQHPGKAPKVLIYDVNQRISGVPDRFSGSKSGNTASLTISGLQAEDEADYYCCSYAGSSSWVFGGGTRLTVL
notes: as for B2
B5: binds [3].

B6: biotinylated Fab A6 (Fab, V domains shown)
VH: EVQLVQSGAEVKKPGASVKVSCKASGYTFTSYYMHWVRQSPGQGLEWMGIINPSGGSTSYAQKFQGRVTMTRDTSTSTVYMELSSLRSEDTAVYYCARNGYCSSTSCYDAFDIWGQGTMVTVSS
VL: QSALTQPASVSGSPGQSITISCTGTSSDVGGYNYVSWYQQHPGKAPKVLIYDVNQRISGVPDRFSGSKSGNTASLTISGLQAEDEADYYCCSYAGSSSWVFGGGTRLTVL
notes: as for B1
B6: binds [4].

B7: Fab A6 tetramer (Fab, V domains shown)
VH: EVQLVQSGAEVKKPGASVKVSCKASGYTFTSYYMHWVRQSPGQGLEWMGIINPSGGSTSYAQKFQGRVTMTRDTSTSTVYMELSSLRSEDTAVYYCARNGYCSSTSCYDAFDIWGQGTMVTVSS
VL: QSALTQPASVSGSPGQSITISCTGTSSDVGGYNYVSWYQQHPGKAPKVLIYDVNQRISGVPDRFSGSKSGNTASLTISGLQAEDEADYYCCSYAGSSSWVFGGGTRLTVL
notes: copies: 4 + 4
B7: binds [4].

B8: biotinylated Fab C7 (Fab, V domains shown)
VH: EVQLVQSGAEVKKPGASVKVSCKASGYTFTSYYMHWVRQAPGQGLEWMGIINPSDGSTSYAQKFQGRVTMTRDTSTSTAYMELSSLRSEDTAVYYCARYIGIMDVWGQGTTVTVSS
VL: not shown
notes: as for B1
B8: binds [5].

B9: Fab C7 tetramer (Fab, V domains shown)
VH: EVQLVQSGAEVKKPGASVKVSCKASGYTFTSYYMHWVRQAPGQGLEWMGIINPSDGSTSYAQKFQGRVTMTRDTSTSTAYMELSSLRSEDTAVYYCARYIGIMDVWGQGTTVTVSS
VL: not shown
notes: copies: 4 + 4
B9: binds [5].

B10: Fab C7 (Fab, V domains shown)
VH: EVQLVQSGAEVKKPGASVKVSCKASGYTFTSYYMHWVRQAPGQGLEWMGIINPSDGSTSYAQKFQGRVTMTRDTSTSTAYMELSSLRSEDTAVYYCARYIGIMDVWGQGTTVTVSS
VL: not shown
notes: as for B2
B10: binds [6].

B11: C1-ETA´ immunotoxin (HLA A*0201-restricted, HCMV-specific Fab antibody C1 coupled to Pseudomonas Exotoxin A) (Fab, V domains shown)
VH: EVQLVQSGAEVKKPGSSVKVSCKASGGTFSSYAISWVRQAPGQGLEWMGGIIPIFGTANYAQKFQGRVTITADESTSTAYMELSSLRSEDTAVYYCARGLAAPDYFDYWGQGTLVTVSS
VL: QSVVTQPPSVSGAPGQRVTISCTGSSSNIGAGYDVHWYQQLPGTAPKLLIYGNSNRPSGVPDRFSGSKSGTSASLAITGLQAEDEADYYCQSYDSSLSGPFYVFGTGTKVTVL
notes: source: E. coli TG1
B11: binds [7]; no binding (tested: 50 µg/ml) [8].

B12: Fab C1 tetramer (Fab, V domains shown)
VH: EVQLVQSGAEVKKPGSSVKVSCKASGGTFSSYAISWVRQAPGQGLEWMGGIIPIFGTANYAQKFQGRVTITADESTSTAYMELSSLRSEDTAVYYCARGLAAPDYFDYWGQGTLVTVSS
VL: QSVVTQPPSVSGAPGQRVTISCTGSSSNIGAGYDVHWYQQLPGTAPKLLIYGNSNRPSGVPDRFSGSKSGTSASLAITGLQAEDEADYYCQSYDSSLSGPFYVFGTGTKVTVL
notes: copies: 4 + 4
B12: binds [1].

B13: biotinylated Fab F3 (Fab, V domains shown)
VH: QVQLVQSGAEVKKPGASVKVSCKASGYTFTSYYMHWVRQAPGQGLEWMGIINPSGGSTSYAQKFQGRVTMTRDTSTSTVYMELSSLRSEDTAVYYCASGITGAHDYWGQGTLVTVSS
VL: QSVVTQPPSVSGAPGQRVTISCTGSSSNIGAGYDVHWYQQLPGTAPKLLIYENSIRPSGVPDRFSGSKSGTAASLAITGLQAEDEAEYYCQSYDNSLSGPNWVFGGGTKLTVL
notes: as for B1
B13: binds [4].

B14: biotinylated Fab C1 (Fab, V domains shown)
VH: EVQLVQSGAEVKKPGSSVKVSCKASGGTFSSYAISWVRQAPGQGLEWMGGIIPIFGTANYAQKFQGRVTITADESTSTAYMELSSLRSEDTAVYYCARGLAAPDYFDYWGQGTLVTVSS
VL: QSVVTQPPSVSGAPGQRVTISCTGSSSNIGAGYDVHWYQQLPGTAPKLLIYGNSNRPSGVPDRFSGSKSGTSASLAITGLQAEDEADYYCQSYDSSLSGPFYVFGTGTKVTVL
notes: as for B1
B14: binds [1].

B15: Fab C1 (Fab, V domains shown)
VH: EVQLVQSGAEVKKPGSSVKVSCKASGGTFSSYAISWVRQAPGQGLEWMGGIIPIFGTANYAQKFQGRVTITADESTSTAYMELSSLRSEDTAVYYCARGLAAPDYFDYWGQGTLVTVSS
VL: QSVVTQPPSVSGAPGQRVTISCTGSSSNIGAGYDVHWYQQLPGTAPKLLIYGNSNRPSGVPDRFSGSKSGTSASLAITGLQAEDEADYYCQSYDSSLSGPFYVFGTGTKVTVL
notes: as for B2
B15: binds [2].

B16: Fab F3 tetramer (Fab, V domains shown)
VH: QVQLVQSGAEVKKPGASVKVSCKASGYTFTSYYMHWVRQAPGQGLEWMGIINPSGGSTSYAQKFQGRVTMTRDTSTSTVYMELSSLRSEDTAVYYCASGITGAHDYWGQGTLVTVSS
VL: QSVVTQPPSVSGAPGQRVTISCTGSSSNIGAGYDVHWYQQLPGTAPKLLIYENSIRPSGVPDRFSGSKSGTAASLAITGLQAEDEAEYYCQSYDNSLSGPNWVFGGGTKLTVL
notes: copies: 4 + 4
B16: binds [4].

B17: Fab F3 (Fab, V domains shown)
VH: QVQLVQSGAEVKKPGASVKVSCKASGYTFTSYYMHWVRQAPGQGLEWMGIINPSGGSTSYAQKFQGRVTMTRDTSTSTVYMELSSLRSEDTAVYYCASGITGAHDYWGQGTLVTVSS
VL: QSVVTQPPSVSGAPGQRVTISCTGSSSNIGAGYDVHWYQQLPGTAPKLLIYENSIRPSGVPDRFSGSKSGTAASLAITGLQAEDEAEYYCQSYDNSLSGPNWVFGGGTKLTVL
notes: as for B2
B17: binds [3].

B18: biotinylated Fab D10 (Fab, V domains shown)
VH: EVQLVQSGGGVVQPGRSLRLSCAASGFTFSSYGMHWVRQAPGKGLEWVAVISYDGTNTDYADSVKGRFTISRDNSKNTLYLQMNSLRAEDTAVYYCARARGIGVSGTLYFDFWGQGTLVTVSS
VL: EIVMTQSPGTLSLSPGERATLSCRASQSVSSSYLAWYQQKPGQAPRLLIYGASTRATGIPDRFSGSGSGTDFTLTINRLEPEDFAVYYCQQYGSSPGTFGQGTRLEIK
notes: as for B1
B18: binds [5].

B19: Fab D10 (Fab, V domains shown)
VH: EVQLVQSGGGVVQPGRSLRLSCAASGFTFSSYGMHWVRQAPGKGLEWVAVISYDGTNTDYADSVKGRFTISRDNSKNTLYLQMNSLRAEDTAVYYCARARGIGVSGTLYFDFWGQGTLVTVSS
VL: EIVMTQSPGTLSLSPGERATLSCRASQSVSSSYLAWYQQKPGQAPRLLIYGASTRATGIPDRFSGSGSGTDFTLTINRLEPEDFAVYYCQQYGSSPGTFGQGTRLEIK
notes: as for B2
B19: binds [6].

B20: Fab C5 (Fab, V domains shown)
VH: EVQLVQSGAEVKRPGASVKVSCKASGYTFTNYDINWVRQATGQGLEWMGWMNPNSGNTGYAQKFQGRVTITADKSTSTAYMELSSLRSEDTAVYYCARQGRLRFLEWYMFDPWGQGTLVTVSS
VL: DVVMTQSPLSLPVTPGEPASISCRSSQSLLHSNGYNYLDWYLQKPGQSPQLLIYLGSIRASGVPDRVTGSGSGTDFTLQISRVEAEDVGVYYCMQGLQTPYTFGQGTKLEIK
notes: as for B2
B20: binds [9].
